Test results as given in patent US20250179180A1 (TENEOBIO, published 2025).

Target: T1, human CD3 (human, UniProt P07766 23-207; P04234 22-171)
T1 construct: also called CD3 on human T cells
Experiment: flow cytometry on primary human T cells

T1 sequence (P07766 23-207 limits assumed, chain 1 of 2): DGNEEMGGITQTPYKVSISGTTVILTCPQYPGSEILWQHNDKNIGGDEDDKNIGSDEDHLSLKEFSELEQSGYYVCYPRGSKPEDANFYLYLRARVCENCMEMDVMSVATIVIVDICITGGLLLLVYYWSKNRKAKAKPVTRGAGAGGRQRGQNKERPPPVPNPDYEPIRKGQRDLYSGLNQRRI
T1 sequence (P04234 22-171 limits assumed, chain 2 of 2): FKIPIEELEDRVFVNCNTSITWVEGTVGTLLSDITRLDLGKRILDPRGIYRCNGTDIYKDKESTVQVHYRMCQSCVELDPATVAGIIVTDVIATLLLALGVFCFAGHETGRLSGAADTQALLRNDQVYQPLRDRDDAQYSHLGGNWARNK

B1: mAb CD3 F2B (antibody, V domains shown)
VH: EVQLVESGGGLVQPGRSLRLSCAASGFTFDDYAMHWVRQAPGKGLEWVSGISWNSGSIGYADSVKGRFTISRDNAKNSLYLQMNSLRAEDTALYYCAKDSRGYGDYRLGGAYWGQGTLVTVSS
VL: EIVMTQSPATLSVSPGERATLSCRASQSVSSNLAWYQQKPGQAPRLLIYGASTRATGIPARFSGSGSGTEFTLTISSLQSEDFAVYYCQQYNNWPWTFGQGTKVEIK
notes: also called F2B antibody; mAb F2B
- binding result: binds

B2: SEQ ID NO 5 (antibody, V domains shown)
VH: EVQLVESGGGLVQPGRSLRLSCAASGFTFDDYAMHWVRQAPGKGLEWVSGISWNSGSIGYADSVKGRFTISRDNAKNSLYLQMNSLRAEDTALYYCAKDSRGYGDYSLGGAYWGQGTLVTVSS
VL: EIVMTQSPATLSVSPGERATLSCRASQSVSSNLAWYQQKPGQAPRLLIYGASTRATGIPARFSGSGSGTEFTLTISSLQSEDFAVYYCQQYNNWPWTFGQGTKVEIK
notes: also called family 2 anti-CD3 FlicAb
- binding result: binds

B3: SEQ ID NO 16 (antibody, V domains shown)
VH: EVQLVESGGGLVQPGRSLRLSCAASGFTFDDYAMHWVRQAPGKGLEWVSGISWNSGSIGYADSVKGRFTISRDNAKKSLYLQMNSLRAEDTALYYCAKDSRGYGDYRLGGAYWGQGTLVTVSS
VL: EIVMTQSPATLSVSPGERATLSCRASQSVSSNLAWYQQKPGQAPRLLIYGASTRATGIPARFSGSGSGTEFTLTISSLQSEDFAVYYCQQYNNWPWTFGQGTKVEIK
notes: as for B2
- binding result: binds

B4: SEQ ID NO 18 (antibody, V domains shown)
VH: EVQLVESGGGLVQPGRSLRLSCAASGFTFDDYAMHWVRQAPGKGLEWVSGISWNSGSIGYADSVKGRFTISRDNAKNSLYLQMNSLRPEDTALYYCAKDSRGYGDYRLGGAYWGQGTLVTVSS
VL: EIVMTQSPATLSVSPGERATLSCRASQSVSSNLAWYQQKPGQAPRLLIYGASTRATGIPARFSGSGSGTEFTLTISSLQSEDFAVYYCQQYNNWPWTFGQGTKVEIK
notes: as for B2
- binding result: binds

B5: SEQ ID NO 9 (antibody, V domains shown)
VH: EVQLVESGGGLVQPGRSLRLSCAASGFTFDNYAMHWVRQAPGKGLEWVSGISWNSGSIGYADSVKGRFTISRDNAKKSLYLQMNSLRAEDTALYYCAKDSRGYGDYSRGGAYWGQGTLVTVSS
VL: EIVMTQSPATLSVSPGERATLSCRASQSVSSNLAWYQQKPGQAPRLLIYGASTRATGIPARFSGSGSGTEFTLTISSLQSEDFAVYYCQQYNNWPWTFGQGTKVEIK
notes: as for B2
- binding result: binds

B6: SEQ ID NO 11 (antibody, V domains shown)
VH: EVQLVESGGGLVQPGRSLRLSCAASGFTFDDYAMHWVRQAPGKGLEWVSGISWNSGSIGYADSVKGRFTISRDNAKNSLYLQMNSLRAEDTALYYCAKDSRGYGDYSRGGAYWGQGTLVTVSS
VL: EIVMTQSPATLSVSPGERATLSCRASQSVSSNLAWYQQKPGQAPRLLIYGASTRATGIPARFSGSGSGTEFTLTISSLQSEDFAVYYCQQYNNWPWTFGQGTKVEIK
notes: as for B2
- binding result: binds

B7: SEQ ID NO 10 (antibody, V domains shown)
VH: EVQLVESGGGLVQPGRSLRLSCAASGFTFDNYAMHWVRQAPGKGLEWVSGISWNSGSIGYADSVKGRFTISRDNAKNSLYLQMNSLRAEDTALYYCAKDSRGYGDYSRGGAYWGQGTLVTVSS
VL: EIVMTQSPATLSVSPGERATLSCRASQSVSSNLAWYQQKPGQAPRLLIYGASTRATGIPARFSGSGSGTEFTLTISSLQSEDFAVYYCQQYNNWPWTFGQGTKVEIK
notes: as for B2
- binding result: binds

B8: SEQ ID NO 13 (antibody, V domains shown)
VH: EVQLVESGGGLVQPGRSLRLSCAASGFTFHNYAMHWVRQAPGKGLEWVSGISWNSGSIGYADSVKGRFTISRDNAKNSLYLQMNSLRAEDTALYYCAKDSRGYGDYSLGGAYWGQGTLVTVSS
VL: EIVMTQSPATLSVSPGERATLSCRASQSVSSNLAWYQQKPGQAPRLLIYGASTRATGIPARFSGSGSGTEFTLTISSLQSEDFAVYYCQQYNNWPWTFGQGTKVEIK
notes: as for B2
- binding result: binds

B9: SEQ ID NO 6 (antibody, V domains shown)
VH: EVQLVESGGGLVQPGRSLRLSCAASGFTFANYAMHWVRQAPGKGLEWVSGISWNSGSIDYADSVKGRFTISRDNAKNSLYLQMNSLRAEDTALYYCAKDSRGYGDYSRGGAYWGQGTLVTVSS
VL: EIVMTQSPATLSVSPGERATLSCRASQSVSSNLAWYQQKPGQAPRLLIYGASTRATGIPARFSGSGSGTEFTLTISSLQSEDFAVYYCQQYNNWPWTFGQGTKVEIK
notes: as for B2
- binding result: binds

B10: SEQ ID NO 7 (antibody, V domains shown)
VH: EVQLVESGGGLVQPGRSLRLSCAASGFTFNNYAMHWVRQAPGKGLEWVSGISWNSGSIGYADSVKGRFTISRDNAKNSLYLQMNSLRGEDTALYYCAKDSRGYGDYSRGGAYWGQGTLVTVSS
VL: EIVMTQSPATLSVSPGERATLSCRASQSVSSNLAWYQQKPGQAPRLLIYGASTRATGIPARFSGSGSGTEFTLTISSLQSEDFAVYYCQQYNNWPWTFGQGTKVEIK
notes: as for B2
- binding result: binds

B11: SEQ ID NO 17 (antibody, V domains shown)
VH: EVQLVESGGGLVQPGRSLRLSCEASGFTFDDYAMHWVRQAPGKGLEWVSGISWNSGSIGYADSVKGRFTISRDNAKNSLYLQMNSLRAEDTALYYCAKDSRGYGDYRLGGAYWGQGTLVTVSS
VL: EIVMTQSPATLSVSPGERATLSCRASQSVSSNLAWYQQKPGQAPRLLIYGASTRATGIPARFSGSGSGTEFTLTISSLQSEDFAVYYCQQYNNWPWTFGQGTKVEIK
notes: as for B2
- binding result: binds

B12: SEQ ID NO 12 (antibody, V domains shown)
VH: EVQLVESGGGLVQPGRSLRLSCAASGFTFDDYAMHWVRQAPGKGLEWVSGISWNSGSIGYADSVKGRFTISRDNAKNSLYLQMNSLRPEDTALYYCAKDSRGYGSYSRGGAYWGQGTLVTVSS
VL: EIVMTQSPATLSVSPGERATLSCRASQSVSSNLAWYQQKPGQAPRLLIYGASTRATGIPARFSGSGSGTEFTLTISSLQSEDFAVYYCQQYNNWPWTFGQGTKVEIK
notes: as for B2
- binding result: binds

B13: SEQ ID NO 2 (antibody, V domains shown)
VH: EVQLVESGGGLVKPGGSLRLSCAASGFTFDDYAMHWVRQAPGKGLEWVSGISWNSGSIGYADSVKGRFTISRDNAKNSLYLQMNSLRAEDTALYYCAKDSRGYGDYRLGGAYWGQGTLVTVSS
VL: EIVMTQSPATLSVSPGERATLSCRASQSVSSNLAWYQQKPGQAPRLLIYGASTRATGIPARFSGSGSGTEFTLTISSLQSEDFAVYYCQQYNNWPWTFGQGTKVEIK
notes: as for B2
- binding result: binds

B14: SEQ ID NO 15 (antibody, V domains shown)
VH: EVQLVESGGGLVQPGRSLRLSCAASGFTFDNYAMHWVRQAPGKGLEWVSGISWNSGSIGYADSVKGRFTISRDNAKKSLYLQMNSLRAEDTALYYCAKDSRGYGDYSLGGAYWGQGTLVTVSS
VL: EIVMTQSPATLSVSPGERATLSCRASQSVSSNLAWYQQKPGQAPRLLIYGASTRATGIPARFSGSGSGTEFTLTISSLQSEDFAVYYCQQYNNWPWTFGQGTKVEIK
notes: as for B2
- binding result: binds

B15: SEQ ID NO 4 (antibody, V domains shown)
VH: EVQLVESGGGLVQPGRSLRLSCAASGFTFDDYAMHWVRQAPGKGLEWVSGISWNSGSIGYADSVKGRFTISRDNAKNSLYLQMNSLRPEDTALYYCAKDSRGYGDYSLGGAYWGQGTLVTVSS
VL: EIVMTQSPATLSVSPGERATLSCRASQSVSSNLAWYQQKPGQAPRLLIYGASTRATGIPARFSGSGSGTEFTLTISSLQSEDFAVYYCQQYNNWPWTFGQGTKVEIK
notes: as for B2
- binding result: binds

B16: SEQ ID NO 8 (antibody, V domains shown)
VH: EVQLVESGGGLVQPGGSLRLSCAASGFTFADYAMHWVRQAPGKGLEWVSGISWNSGSIGYADSVKGRFTISRDNAKNSLYLQMNSLRAEDTALYYCAKDSRGYGDYSRGGAYWGQGTLVTVSS
VL: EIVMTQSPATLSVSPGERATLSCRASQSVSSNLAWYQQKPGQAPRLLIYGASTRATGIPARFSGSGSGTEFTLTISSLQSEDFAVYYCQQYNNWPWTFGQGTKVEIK
notes: as for B2
- binding result: binds

B17: SEQ ID NO 3 (antibody, V domains shown)
VH: EVQLVESGGGLVQPGRSLRLSCAASGFTFDDYAMHWVRQAPGKGLEWVSGISWNSGSIGYADSVKGRFTISRDNAKKSLYLQMNSLRAEDTALYYCAKDSRGYGDYSRGGAYWGQGTLVTVSS
VL: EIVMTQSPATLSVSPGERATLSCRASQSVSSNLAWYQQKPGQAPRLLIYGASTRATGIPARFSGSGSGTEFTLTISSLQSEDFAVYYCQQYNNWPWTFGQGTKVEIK
notes: as for B2
- binding result: binds
